The source of these data is article PMC7515910, “Functional genetic encoding of sulfotyrosine in mammalian cells” (Nature Communications, 2020).

This data set deals with the molecule itself. In words: crystal structure; sTyrRS (a.a. 1-322, 9 mg/mL) with 2 mM sulfotyrosine; sitting drop vapor diffusion at 15 °C; ammonium sulfate (2.2 M), PEG 400 (2.5-3%), HEPES (0.1 M, pH 7.5); 1.78 Å.

B1: evolved sTyrRS amino acid activation domain (a.a. 1-322) (enzyme, E. coli, UniProt P0AGJ9 1-322, looked up)
chain: MASSNLIKQLQERGLVAQVTDEEALAERLAQGPIALYCGFDPTADSLHLGHLVPLLCLKRFQQAGHKPVAVVGGATGLIGDPSFKAAERKLNTEETVQEWVDKIRKQVAPFLDFDCGENSAIAANNYDFFGNMNVLTFLRDIGKHFSVNQMINKEAVKQRLNREDQGISFTEFSYNLLQGYGFACLNKQYGVVLQIGGSDQWGNITSGIDLTRRLHQNQVFGLTVPLITKADGTKFGKTEGGAVWLDPKKTSPYKFYQFWINTADADVYRFLKFFTFMSIEEINALEEEDKNSGKAPRAQYVLAEQVTRLVHGEEGLQAAKR
notes: Y37 unchanged; Crystallised in complex with the small molecule sulfotyrosine (2 mM); also called sTyrRS (1-322); sTyrRS1-322; source: E. coli BL21(DE3), purified (Ni resin, Ulp1 cleavage, Superdex 200 gel filtration); not shown: 6xHis, N-terminal, cleaved; SUMO, N-terminal, cleaved
For the protein B1, the “stoichiometry N” value was 2.
